This note sets out measurements from US20250011363A1, “OPTIMIZED SHORTENED PEPTIDE THAT BINDS TO ACETYLCHOLINE RECEPTOR, AND USE THEREOF” (SKINMED CO., LTD., priority 2021, published 2025).

This experiment deals with acetylcholine receptor (Homo sapiens, UniProt P02708). Briefly: SPR binding affinity (RU) of optimized 5mer/6mer/7mer peptides, Examples 6-7. The following applies: SPR, peptides tested at 10 μM, 6mer-1 Bottom sequence (Table 11). An outline of the steps: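 Using surface plasmon resonance, binding to the acetylcholine receptor was measured for each sequence at a single 10 μM concentration. Values are response units.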
Sequence of acetylcholine receptor (P02708 21-457): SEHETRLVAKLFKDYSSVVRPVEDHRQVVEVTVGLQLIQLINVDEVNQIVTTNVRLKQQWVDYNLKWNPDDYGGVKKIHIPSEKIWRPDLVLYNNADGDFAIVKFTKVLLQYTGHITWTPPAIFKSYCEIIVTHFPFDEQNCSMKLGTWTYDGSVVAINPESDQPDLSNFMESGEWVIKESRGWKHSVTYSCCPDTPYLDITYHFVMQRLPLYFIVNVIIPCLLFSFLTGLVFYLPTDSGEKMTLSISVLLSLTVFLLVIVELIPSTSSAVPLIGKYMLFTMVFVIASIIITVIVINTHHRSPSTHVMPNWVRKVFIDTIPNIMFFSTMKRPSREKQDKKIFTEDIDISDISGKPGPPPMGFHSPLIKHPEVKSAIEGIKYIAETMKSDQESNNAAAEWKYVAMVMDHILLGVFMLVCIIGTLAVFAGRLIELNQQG
(In SPR one partner is held on a chip, and binding of the other changes the refractive index at the surface.)

As to 6mer-1-727 (RKANGK), the Binding affinity (Resonance Units) was 29 Ru.
Consider 6mer-1-728 (RRDNAR), for which, under “Resonance Units”, the Binding affinity is given as 23 Ru.
On the same count and under the same terms, as for 6mer-1-729 (KKKSGK), the figure is 23 Ru; as for 6mer-1-730 (KRATFR), 13 Ru.
The same measure, in the same setting: with 6mer-1-731 (RRIKAR) the figure was 18 Ru.
The same measure, in the same setting: with 6mer-1-732 (RRAAVR) the figure was 26 Ru.
Turning to 6mer-1-733 (KKKMFK), the Binding affinity (Resonance Units) stood at 21 Ru.
With 6mer-1-734 (RRTHER), under “Resonance Units”, the Binding affinity was determined as 21 Ru.
As to 6mer-1-735 (RKDKER), the Binding affinity (Resonance Units) worked out at 19 Ru.
Turning to 6mer-1-736 (KKATDK), the Binding affinity (Resonance Units) came to 15 Ru.
Consider 6mer-1-737 (RRKNAR), for which the Binding affinity (Resonance Units) is 27 Ru.
As for 6mer-1-738 (RKYHHR), for the setting “Resonance Units”, the Binding affinity was determined as 25 Ru.
With 6mer-1-739 (RKCCEK), the Binding affinity (Resonance Units) was found to be 32 Ru.
As to 6mer-1-740 (RKDNKR), the Binding affinity (Resonance Units) came out at 26 Ru.
Take 6mer-1-741 (RKEAGR): the Binding affinity (Resonance Units) is given as 24 Ru.
Still for that read-out and setting: with 6mer-1-742 (RRFHWR) the figure was 14 Ru; with 6mer-1-743 (KKTMVR), 14 Ru; with 6mer-1-744 (RKHEIK), 31 Ru.
6mer-1-745 (KKTMEK): the Binding affinity (Resonance Units) was found to be 11 Ru.
Consider 6mer-1-746 (RKMSVK), for which the Binding affinity (Resonance Units) turned out to be 24 Ru.
Regarding 6mer-1-747 (KKTMDR), the Binding affinity (Resonance Units) was 24 Ru.
Regarding 6mer-1-748 (RKHNGR), the Binding affinity (Resonance Units) worked out at 24 Ru.
For the substance 6mer-1-749 (RKPHWR), the Binding affinity (Resonance Units) turned out to be 33 Ru.
On to 6mer-1-750 (KRENIK), for which the Binding affinity (Resonance Units) was found to be 33 Ru.
Turning to 6mer-1-751 (RRTNFK), the Binding affinity (Resonance Units) came to 27 Ru.
For the substance 6mer-1-752 (KRPTEK), under “Resonance Units”, the Binding affinity came out at 16 Ru.
With 6mer-1-753 (KKDTHK), the Binding affinity (Resonance Units) stood at 12 Ru.
Take 6mer-1-754 (RKKKMK): the Binding affinity (Resonance Units) stood at 24 Ru.
Turning to 6mer-1-755 (RRANMR), where the note is “Resonance Units”, the Binding affinity is on record as 25 Ru.
In the case of 6mer-1-756 (RKAKMK), the Binding affinity (Resonance Units) is listed as 33 Ru.
6mer-1-757 (RKDNEK): the Binding affinity (Resonance Units) turned out to be 26 Ru.
Take 6mer-1-758 (KKYHHR): the Binding affinity (Resonance Units) stood at 33 Ru.
Still for that read-out and setting: as for 6mer-1-759 (RKMTWR), the figure is 23 Ru; as for 6mer-1-760 (KRMMVR), 21 Ru.
As for 6mer-1-761 (RKETFR), the Binding affinity (Resonance Units) is on record as 33 Ru.
As to 6mer-1-762 (KKTKAR), for the setting “Resonance Units”, the Binding affinity turned out to be 13 Ru.
Take 6mer-1-763 (RRDCAK): the Binding affinity (Resonance Units) is reported as 12 Ru.
With 6mer-1-764 (RRNPFK), the Binding affinity (Resonance Units) is recorded as 24 Ru.
On the same count and under the same terms, with 6mer-1-765 (KRASPK) the figure was 25 Ru; with 6mer-1-766 (RKCTIR), 15 Ru.
Same read-out and setting: as for 6mer-1-767 (KRTPDK), the figure is 18 Ru; as for 6mer-1-768 (RKFEWK), 32 Ru.
As to 6mer-1-769 (RKMPVK), the Binding affinity (Resonance Units) is given as 14 Ru.
On to 6mer-1-770 (RKTNAR), for which the Binding affinity (Resonance Units) came to 29 Ru.
For 6mer-1-771 (KKMDIK), the Binding affinity (Resonance Units) is reported as 17 Ru.
The same measure, in the same setting: with 6mer-1-772 (KRNCAK) the figure was 12 Ru; with 6mer-1-773 (KRTEIR), 29 Ru.
As to 6mer-1-774 (KKEMER), the Binding affinity (Resonance Units) turned out to be 21 Ru.
The same measure, in the same setting: as for 6mer-1-775 (KKYPWR), the figure is 12 Ru; as for 6mer-1-776 (KKTSIK), 13 Ru.
For 6mer-1-777 (RRHNHR), the Binding affinity (Resonance Units) turned out to be 16 Ru.
For 6mer-1-778 (RRDDFR), the Binding affinity (Resonance Units) was determined as 28 Ru.
For the substance 6mer-1-779 (RRPDAR), for the setting “Resonance Units”, the Binding affinity amounted to 30 Ru.
The same measure, in the same setting: as for 6mer-1-780 (KRKCWR), the figure is 24 Ru.
Take 6mer-1-781 (RRHWDK): for the setting “Resonance Units”, the Binding affinity came out at 16 Ru.
As to 6mer-1-782 (KKNAWK), the Binding affinity (Resonance Units) is given as 30 Ru.
For the substance 6mer-1-783 (KKNEFK), for the setting “Resonance Units”, the Binding affinity turned out to be 29 Ru.
6mer-1-784 (KKFTPK): where the note is “Resonance Units”, the Binding affinity is given as 33 Ru.
As for 6mer-1-785 (KKTCER), the Binding affinity (Resonance Units) is 19 Ru.
Turning to 6mer-1-786 (KRIKEK), for the setting “Resonance Units”, the Binding affinity is given as 26 Ru.
Still for that read-out and setting: with 6mer-1-787 (KKESIK) the figure was 16 Ru; with 6mer-1-788 (RKIPKK), 22 Ru.
Take 6mer-1-789 (KRMMPK): the Binding affinity (Resonance Units) is given as 19 Ru.
As to 6mer-1-790 (KKPNPK), the Binding affinity (Resonance Units) was 12 Ru.
Consider 6mer-1-791 (RKPDDK), for which the Binding affinity (Resonance Units) is given as 13 Ru.
For the substance 6mer-1-792 (KRKDKK), the Binding affinity (Resonance Units) was found to be 30 Ru.
Turning to 6mer-1-793 (KKTPNR), the Binding affinity (Resonance Units) is given as 31 Ru.
On to 6mer-1-794 (RKYEPK), for which the Binding affinity (Resonance Units) is reported as 11 Ru.
Take 6mer-1-795 (KKCHMR): the Binding affinity (Resonance Units) was determined as 12 Ru.
As to 6mer-1-796 (RRHAFK), for the setting “Resonance Units”, the Binding affinity came out at 28 Ru.
6mer-1-797 (RRAWNK): the Binding affinity (Resonance Units) turned out to be 22 Ru.
6mer-1-798 (RRDCFR): the Binding affinity came out at 18 Ru.
On the same count and under the same terms, with 6mer-1-799 (RRKKKR) the figure was 30 Ru; with 6mer-1-800 (RREHIR), 15 Ru; with 6mer-1-801 (KKCAVK), 18 Ru.
On the same count and under the same terms, with 6mer-1-802 (RKYHGR) the figure was 32 Ru.
In the case of 6mer-1-803 (RKMKHK), the Binding affinity is on record as 31 Ru.
Same read-out and setting: as for 6mer-1-804 (KRDPFR), the figure is 31 Ru; as for 6mer-1-805 (KRDTMK), 24 Ru; as for 6mer-1-806 (RKKTIR), 12 Ru.
In the case of 6mer-1-807 (RRDKNR), the Binding affinity was 13 Ru.
In the case of 6mer-1-808 (RRFEKK), the Binding affinity came out at 24 Ru.
6mer-1-809 (KKKSNR): the Binding affinity was 12 Ru.
For 6mer-1-810 (RKCNAR), the Binding affinity is recorded as 12 Ru.
For 6mer-1-811 (KRHCHK), the Binding affinity turned out to be 16 Ru.
On to 6mer-1-812 (RKDHMK), for which the Binding affinity is 26 Ru.
As for 6mer-1-813 (RREDFK), the Binding affinity turned out to be 15 Ru.
In the case of 6mer-1-814 (KKCNAK), the Binding affinity is 15 Ru.
6mer-1-815 (RRFEMR): the Binding affinity is 23 Ru.
As for 6mer-1-816 (RKIDFK), the Binding affinity stood at 14 Ru.
Turning to 6mer-1-817 (RRIMKR), the Binding affinity came to 16 Ru.
In the case of 6mer-1-818 (RKIKAR), the Binding affinity is 14 Ru.
On to 6mer-1-819 (KRMHAK), for which the Binding affinity came to 17 Ru.
On to 6mer-1-820 (KRNDGK), for which the Binding affinity worked out at 12 Ru.
For 6mer-1-821 (RRTTNR), the Binding affinity turned out to be 22 Ru.
For the substance 6mer-1-822 (KREPIK), the Binding affinity is 17 Ru.
Regarding 6mer-1-823 (KRHTGK), the Binding affinity stood at 12 Ru.
Same read-out and setting: with 6mer-1-824 (KKMNIK) the figure was 12 Ru.
On to 6mer-1-825 (RKEKWK), for which the Binding affinity was determined as 30 Ru.
As for 6mer-1-826 (KKAHMR), the Binding affinity was 31 Ru.
For the substance 6mer-1-827 (RKKKFR), the Binding affinity is 30 Ru.
For 6mer-1-828 (RRPNMK), the Binding affinity came out at 26 Ru.
Consider 6mer-1-829 (RRIHKK), for which the Binding affinity stood at 25 Ru.
6mer-1-830 (KKTTMK): the Binding affinity was found to be 33 Ru.
Take 6mer-1-831 (KKNPWK): the Binding affinity was 15 Ru.
For the substance 6mer-1-832 (RKYWGK), the Binding affinity is recorded as 12 Ru.
Take 6mer-1-833 (RRYKNR): the Binding affinity stood at 19 Ru.
In the case of 6mer-1-834 (KRNTIR), the Binding affinity stood at 17 Ru.
Consider 6mer-1-835 (KRTADK), for which the Binding affinity was 26 Ru.
In the case of 6mer-1-836 (RRCMIK), the Binding affinity turned out to be 22 Ru.
Consider 6mer-1-837 (KRDHAK), for which the Binding affinity came to 19 Ru.
On to 6mer-1-838 (KRNTWK), for which the Binding affinity is on record as 17 Ru.
As to 6mer-1-839 (KRNWAK), the Binding affinity came to 29 Ru.
Consider 6mer-1-840 (RKICNK), for which the Binding affinity worked out at 12 Ru.
With 6mer-1-841 (KKDAPR), the Binding affinity came to 30 Ru.
For 6mer-1-842 (RRFANK), the Binding affinity came out at 11 Ru.
In the case of 6mer-1-843 (KKKTIK), the Binding affinity was 28 Ru.
Regarding 6mer-1-844 (KKPMNR), the Binding affinity was 28 Ru.
For the substance 6mer-1-845 (KKIDKK), the Binding affinity was 23 Ru.
Turning to 6mer-1-846 (RKDAEK), the Binding affinity was 28 Ru.
For 6mer-1-847 (KKYNHK), the Binding affinity was determined as 20 Ru.
For 6mer-1-848 (RKTMFK), the Binding affinity stood at 19 Ru.
6mer-1-849 (KKFNWK): the Binding affinity is 21 Ru.
On to 6mer-1-850 (RRNPEK), for which the Binding affinity stood at 29 Ru.
Still for that read-out and setting: with 6mer-1-851 (RRYMEK) the figure was 30 Ru; with 6mer-1-852 (KRASVK), 19 Ru; with 6mer-1-853 (KRCNGR), 30 Ru.
For the substance 6mer-1-854 (KKEAVR), the Binding affinity stood at 16 Ru.
Still for that read-out and setting: as for 6mer-1-855 (RKCDVR), the figure is 15 Ru; as for 6mer-1-856 (KRMWFK), 30 Ru; as for 6mer-1-857 (KRPAFK), 14 Ru.
Same read-out and setting: with 6mer-1-858 (KKKHKR) the figure was 27 Ru; with 6mer-1-859 (RKCMVK), 27 Ru.
